# Measured values taken from paper PMC10201431, “SirA inhibits the essential DnaA:DnaD interaction to block helicase recruitment during Bacillus subtilis sporulation” (Nucleic Acids Research, 2022).
# Columns and labels:
# [1] = target: DnaD^L22A, purified recombinant (B. subtilis) (UniProt P39787); assay: SEC-MALS; 20°C; 40 mM Tris-HCl pH 8, 500 mM NaCl, 1 mM EDTA, 20 mM imidazole, 2.5% glycerol; 100 μl injected
# [2] = target: the molecule itself; assay: cross-linking; BS3, 250 nM protein, 500x molar excess BS3, 6 min at 20°C, 20 mM HEPES pH 7.2, 100 mM NaCl, 10 mM magnesium acetate; SDS-PAGE and anti-DnaD immunoblot
# [3] = target: the molecule itself; assay: SEC-MALS; 20°C; 40 mM Tris-HCl pH 8, 500 mM NaCl, 1 mM EDTA, 20 mM imidazole, 2.5% glycerol; 100 μl injected
molecule,measurement,setting,value
"DnaD^L22A, purified recombinant (from UniProt P39787 1-232) (natural protein)",percent present as monomer,[1],> 50%
same,stoichiometry N,[1],4
"DnaD^F6A, purified recombinant (natural protein, B. subtilis, UniProt P39787 1-232, looked up, DnaD, B. subtilis 168CA, with F6A; made from pSF17 by Quickchange; source: E. coli BL21(DE3)-pLysS, purified (HisTrap, SUMO protease digestion, reverse HisTrap)) MKKQQAIDMQEQGTSTIPNLLLTHYKQLGLNETELILLLKIKMHLEKGSYFPTPNQLQEGMSISVEECTNRLRMFIQKGFLFIEECEDQNGIKFEKYSLQPLWGKLYEYIQLAQNQTQERKAEGEQKSLYTIFEEEFARPLSPLECETLAIWQDQDQHDAQLIKHALKEAVLSGKLSFRYIDRILFEWKKNGLKTVEQAKIHSQKFRRVQAKQNEPQKEYKRQVPFYNWLEQ",stoichiometry N,[2],2
"DnaD^K3A, purified recombinant (natural protein, B. subtilis, UniProt P39787 1-232, looked up, DnaD, B. subtilis 168CA, with K3A; made from pSF17 by Quickchange; source: E. coli BL21(DE3)-pLysS, purified (HisTrap, SUMO protease digestion, reverse HisTrap)) MKAQQFIDMQEQGTSTIPNLLLTHYKQLGLNETELILLLKIKMHLEKGSYFPTPNQLQEGMSISVEECTNRLRMFIQKGFLFIEECEDQNGIKFEKYSLQPLWGKLYEYIQLAQNQTQERKAEGEQKSLYTIFEEEFARPLSPLECETLAIWQDQDQHDAQLIKHALKEAVLSGKLSFRYIDRILFEWKKNGLKTVEQAKIHSQKFRRVQAKQNEPQKEYKRQVPFYNWLEQ",stoichiometry N,[2],2
"DnaD, wild type, purified recombinant (natural protein, B. subtilis, UniProt P39787 1-232, looked up, DnaD, B. subtilis 168CA; dnaD amplified from genomic DNA and cloned into pSF17; The printed theoretical mass of the tetramer (110 kDa) fits the whole protein; also called Wild-type DnaD; source: E. coli BL21(DE3)-pLysS, purified (HisTrap, SUMO protease digestion, reverse HisTrap)) MKKQQFIDMQEQGTSTIPNLLLTHYKQLGLNETELILLLKIKMHLEKGSYFPTPNQLQEGMSISVEECTNRLRMFIQKGFLFIEECEDQNGIKFEKYSLQPLWGKLYEYIQLAQNQTQERKAEGEQKSLYTIFEEEFARPLSPLECETLAIWQDQDQHDAQLIKHALKEAVLSGKLSFRYIDRILFEWKKNGLKTVEQAKIHSQKFRRVQAKQNEPQKEYKRQVPFYNWLEQ",stoichiometry N,[3],4
